Experimental data reported in the supplement of paper PMC12042874.
± gives the uncertainty stated by the source.

Assay: amyloid nucleation score (Sup35N fusion, yeast selection) (log enrichment); library NNK2; higher = more nucleation; inactive = no reads after selection
Procedure, shortened: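 The nucleation score, computed with DiMSum, is the log enrichment of output over input reads, centred on the mode score of non-aggregating sequences. Sequences with under 100 input reads were dropped. Reads were generated by Illumina sequencing of plasmid inserts from psi-negative yeast with Sup35N fused to peptides of 20 random codons, induced with 100 μM copper sulfate for 24 hours and grown 7 days at 30°C on medium lacking adenine and uracil.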

Point of comparison: TFCEWMLWNTLCQVLSVPPY, amyloid nucleation score 6.423 ± 0.045. Against it:
- TCPCRYLDVNIDAMFVTMDI — higher, 7.789 ± 0.056
- TCTVASLYLGAFDWNYVEAV — lower, 3.08 ± 0.12
- TCYMVWSLYC — lower, 3.93 ± 0.067
- TDCTLSGKRLRYLNGDCFKK — lower, -1.13 ± 0.55
- TDFCSHKTWLSAVGISV — lower, 0.037 ± 0.23
- TDGVLFQLVDSKFV — lower, -1.25 ± 0.64
- TDKCVTTFNCYNLHRR — lower, 1.62 ± 0.15
- TDLYTCDVLRVLVCAH — lower, -0.011 ± 0.45
- TDNNNVYYVYSLQVIPTVSD — lower, -0.496 ± 0.32
- TDSYPVLDLHPGSYRVH — lower, 0.397 ± 0.39
- TEGHVNSQIRWNLVY — lower, -0.348 ± 0.36
- TELKEGLYAGIHFNTGTG — lower, -0.457 ± 0.64
- TESIFCSYSWVCVGVMSNYD — lower, 5.1 ± 0.071
- TETNRDWRLGDDW — lower, 5.293 ± 0.047
- TFAQYPSLGNSFSGWGYCVK — lower, -2.02 ± 0.75
- TFCICPFNAEV — higher, 7.35 ± 0.029
- TFLQPTLEVSLL — lower, -0.612 ± 0.48
- TFMFDHRIGISDGLSTIMVI — lower, 0.923 ± 0.81
- TFMRKCIFMFLFVIFSFYSS — lower, 2.03 ± 0.11
- TFSQYTWEFIYN — lower, 3.68 ± 0.11
- TFYCTSCFLLMSVMSFHRLL — lower, 1.89 ± 0.13
- TGAFPDCLALMYKGAEEVER — lower, 0.011 ± 0.28
- TGCRVGHCIYVYVSEVSSNP — lower, 0.903 ± 0.34
- TGCVDVAEMVNP — lower, 0.138 ± 0.48
- TGFGTSMFSKLYVNVNYL — lower, 5.37 ± 0.072
- TGGGATLRRILRHLSVGSDR — lower, -0.005 ± 0.79
- TGLDFGNLLLARCMSRV — lower, 0.43 ± 0.32
- TGLKIG — lower, 0.038 ± 0.29
- TGLTLVV — lower, -0.094 ± 1
- TGRISVSG — lower, 0.14 ± 1
- TGSRNIWTRVVFLYCFRVHG — lower, -0.939 ± 0.54
- TGSWNGCVKWASRLKRAGGR — lower, 0.643 ± 0.64
- TGTFSAKLVDTPEGYYLLSV — lower, -1.01 ± 0.41
- TGVFHSVCNIWCFHSKDPSN — higher, 7.54 ± 0.076
- THCFCGTNGWVMWGSPEGLA — lower, 0.179 ± 0.55
- THMSEDGFVL — lower, 0.072 ± 0.34
- TIAPGRRYENVNKGCERRFI — lower, -1.76 ± 0.76
- TICFIFHSFRLFRIDAY — lower, 4.54 ± 0.098
- TIFIGVRVPS — lower, -0.224 ± 0.63
- TIFWLTISCQRYRD — lower, 1.46 ± 0.13
- TIGEVYGYLRSWIYWGSEST — lower, 0.154 ± 0.46
- TIGTVMNSLSHFLRPAR — lower, 1.15 ± 0.21
- TIHRVVWCLL — lower, -0.645 ± 0.56
- TIILMGYLFWICRQSVR — lower, -0.449 ± 0.38
- TILGSLHFNFVKCHSKCSYF — higher, 7.238 ± 0.061
- TIQAYICPLVSKAYWWGVEY — within error, 6.427 ± 0.032
- TIYMMSRDFRF — lower, 4.748 ± 0.028
- TKEIVEGINTQLYRWTLFG — lower, -0.429 ± 0.25
- TKLEYNTE — lower, 0.118 ± 0.77
- TLATTGTHCVYYKNSWCKFR — lower, -0.498 ± 0.63
- TLAWRSGTRRELKEECNGGW — lower, 1.19 ± 0.59
- TLDNIRFKLQTAGTAIMWRR — lower, 0.311 ± 0.24
- TLEKSFPLEFVV — lower, 0.204 ± 0.65
- TLFNMLDYSVVWYLFTSIHR — lower, -1.44 ± 1.1
- TLGLHGED — lower, 0.23 ± 0.31
- TLGREVSKVQNATSFLPMQA — lower, 0.926 ± 0.29
- TLHLWGSK — lower, 1.38 ± 0.42
- TLHNYCYPMIRSCGQSPGRF — lower, 0.208 ± 1.1
- TLHWK — lower, -0.667 ± 0.33
- TLIDYYFYYCYGKSVDKAGL — lower, -0.749 ± 0.45
- TLLSNTSKLFLLHNYHQWVM — lower, 0.062 ± 0.74
- TLMGNVRTCPPAGRRATTAS — lower, 0.966 ± 0.22
- TLWHARTVKRDKWSSYGVGR — lower, 1.83 ± 0.12
- TLWLMPDLRTRLEAGCRYKT — lower, -0.08 ± 0.44

With TDMWPVYANRVFYNMSWSRP the amyloid nucleation score was “inactive”.
For TFHGNYFVDTSA, the amyloid nucleation score was “inactive”.
In the case of TFNISLAWCEFFSHIFLLN, the amyloid nucleation score is reported as “inactive”.
For TIKRLLKDFPLIFLRISGST, the amyloid nucleation score was “inactive”.
With TILKDSTPAVYNVRMRFKAW the amyloid nucleation score was “inactive”.
